Where “and” joins values, the source holds several entries; their conditions need not be identical. Equal entries are not always repeated. Non-standard residues stand in square brackets, D forms with d. No end group written: not given here. Nle = CCCC[C@H](N)C(=O)O
T1: human PTH-1 receptor (human, UniProt Q03431 27-593)
T1 sequence (looked up): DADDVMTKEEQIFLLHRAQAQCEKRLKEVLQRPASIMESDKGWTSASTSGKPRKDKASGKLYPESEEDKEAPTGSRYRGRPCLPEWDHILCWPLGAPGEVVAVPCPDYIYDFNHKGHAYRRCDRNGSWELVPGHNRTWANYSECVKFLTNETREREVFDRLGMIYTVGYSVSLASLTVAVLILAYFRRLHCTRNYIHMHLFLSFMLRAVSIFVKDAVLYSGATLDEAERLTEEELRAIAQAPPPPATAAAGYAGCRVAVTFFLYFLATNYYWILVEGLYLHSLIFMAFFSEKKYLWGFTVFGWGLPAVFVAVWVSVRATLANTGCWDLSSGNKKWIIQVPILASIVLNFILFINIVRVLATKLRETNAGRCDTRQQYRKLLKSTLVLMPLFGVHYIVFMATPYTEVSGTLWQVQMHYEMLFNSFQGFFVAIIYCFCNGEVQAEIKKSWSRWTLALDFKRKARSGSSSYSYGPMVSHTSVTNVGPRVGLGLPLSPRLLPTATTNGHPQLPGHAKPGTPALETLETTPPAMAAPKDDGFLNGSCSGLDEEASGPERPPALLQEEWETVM

T2: rat PTH-1 receptor (rat, UniProt P25961 27-591)
T2 sequence (looked up): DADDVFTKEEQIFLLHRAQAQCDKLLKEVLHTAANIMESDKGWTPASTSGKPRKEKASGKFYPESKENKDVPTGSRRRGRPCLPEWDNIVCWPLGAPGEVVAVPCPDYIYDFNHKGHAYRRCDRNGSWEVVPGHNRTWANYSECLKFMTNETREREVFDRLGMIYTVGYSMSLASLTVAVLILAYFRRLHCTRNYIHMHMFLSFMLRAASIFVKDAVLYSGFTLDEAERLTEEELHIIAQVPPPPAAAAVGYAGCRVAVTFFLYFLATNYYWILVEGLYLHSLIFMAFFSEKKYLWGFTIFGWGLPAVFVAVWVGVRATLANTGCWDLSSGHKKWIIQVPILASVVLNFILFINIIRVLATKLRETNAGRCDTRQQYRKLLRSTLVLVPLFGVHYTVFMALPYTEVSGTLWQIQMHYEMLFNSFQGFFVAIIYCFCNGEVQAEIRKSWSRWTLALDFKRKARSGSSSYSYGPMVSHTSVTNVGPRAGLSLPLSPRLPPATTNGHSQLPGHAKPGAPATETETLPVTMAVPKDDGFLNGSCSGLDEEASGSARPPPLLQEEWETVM


target: T1, human PTH-1 receptor; experiment: cell-based or functional assay

| Binder | cAMP potency against native PTH(1-14) [fold] | cAMP potency against controls, HKRK-B7 cells [fold] |
| --- | --- | --- |
| AVAEIQLMHARAKW-NH2 [[A3, A10, R11, A12, W14]rPTH(1-14)] | 220 |  |
| AVAEIQLMHARAKHLNSMERVEWLRKKLQDVHNY-NH2 (also called peptide #7; #7) [[A1, A3, A10, R11, A12, Y34]hPTH(1-34)] |  | ~2 |

target: T1, human PTH-1 receptor; experiment: cell-based or functional assay; remark: another data set of the same source

| Binder | cAMP EC50, HKRK-B7 cells | cAMP Emax, HKRK-B7 cells [picomole/well] |
| --- | --- | --- |
| SVSEIQLMHNLGKHLNSMERVEWLRKKLQDVHNY-NH2 [[Tyr^34]human (h)PTH(1-34)NH2] | -8.4 Log M | 270 |
| AVSEIQLMHNLGKH-NH2 [native rPTH(1-14)] | -3.9 Log M and 133 µM | 299 |
| AVAEIQLMHARAK-NH2 [[A3, A10, R11, A12]rPTH(1-13)] | -5.6 Log M and 2.4 µM | 239 |
| AVAEIQLMHARA-NH2 [[A3, A10, R11, A12]rPTH(1-12)] | -5 Log M and 10.2 µM | 238 |
| AVAEIQLMHAR-NH2 [[A3, A10, R11]rPTH(1-11)] | -4.8 Log M and 17.1 µM | 248 |
| AVAEIQLMHQRAKH-NH2 [[A3, Q10, R11, A12]rPTH(1-14)] | -6.1 Log M and 0.8 µM | 235 |
| AVAEIQLMHARAKW-NH2 [[A3, A10, R11, A12, W14]rPTH(1-14)] | -6.3 Log M and 0.6 µM | 262 |
| AVSEIQL[Nle]HNLGKHLASVER[Nle]QWLRKKLQDVHNY-NH2 [[Nle^8,21,Tyr^34]-rPTH(1-34)NH2] | -8.6 Log M and 0.0033 µM | 293 |
| AVAEIQLMHARAKHLNSMERVEWLRKKLQDVHNY-NH2 (also called peptide #7; #7) [[A1, A3, A10, R11, A12, Y34]hPTH(1-34)] | -8.8 Log M and 0.0016 µM | 244 |
| AVAEIQLMHARAKH-NH2 [[A3, A10, R11, A12]rPTH(1-14)] | -6.1 Log M and 0.83 µM | 264 |

target: human PTH-2 receptor (human, UniProt P49190 25-550); experiment: cell-based or functional assay
Sequence (P49190 25-550): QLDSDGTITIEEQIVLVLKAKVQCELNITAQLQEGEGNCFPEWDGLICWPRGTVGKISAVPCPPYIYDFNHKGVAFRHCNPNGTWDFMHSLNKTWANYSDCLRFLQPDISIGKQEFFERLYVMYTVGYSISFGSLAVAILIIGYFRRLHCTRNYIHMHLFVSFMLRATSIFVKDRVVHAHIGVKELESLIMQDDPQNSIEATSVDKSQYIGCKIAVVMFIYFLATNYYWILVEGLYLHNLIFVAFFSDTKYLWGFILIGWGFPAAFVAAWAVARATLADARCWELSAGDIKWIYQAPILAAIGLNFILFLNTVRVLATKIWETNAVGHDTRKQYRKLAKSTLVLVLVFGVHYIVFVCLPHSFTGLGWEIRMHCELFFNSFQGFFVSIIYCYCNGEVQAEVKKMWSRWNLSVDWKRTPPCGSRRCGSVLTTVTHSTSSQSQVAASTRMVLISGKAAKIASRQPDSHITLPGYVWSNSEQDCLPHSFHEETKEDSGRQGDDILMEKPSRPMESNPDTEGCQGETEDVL

| Binder | cAMP EC50, LLC-P2R-22 cells | cAMP Emax, LLC-P2R-22 cells [picomole/well] |
| --- | --- | --- |
| AVAEIQLMHARAK-NH2 [[A3, A10, R11, A12]rPTH(1-13)] | -4 Log M and 106 µM | 501 |
| AVAEIQLMHARA-NH2 [[A3, A10, R11, A12]rPTH(1-12)] | -3.5 Log M and 342 µM | 501 |
| AVSEIQL[Nle]HNLGKHLASVER[Nle]QWLRKKLQDVHNY-NH2 [[Nle^8,21,Tyr^34]-rPTH(1-34)NH2] | -8.4 Log M and 0.0044 µM | 744 |
| AVAEIQLMHARAKHLNSMERVEWLRKKLQDVHNY-NH2 (also called peptide #7; #7) [[A1, A3, A10, R11, A12, Y34]hPTH(1-34)] | -7.7 Log M and 0.0192 µM | 677 |
| AVAEIQLMHARAKH-NH2 [[A3, A10, R11, A12]rPTH(1-14)] | -3.9 Log M and 126 µM | 292 |

target: T1, human PTH-1 receptor; experiment: cell-based or functional assay; remark: another data set of the same source

| Binder | cAMP EC50, COS-7 cells with WT hPTH-1 receptor | cAMP Emax, COS-7 cells with WT hPTH-1 receptor [picomole/well] |
| --- | --- | --- |
| SVSEIQLMHNLGKHLNSMERVEWLRKKLQDVHNY-NH2 [[Tyr^34]human (h)PTH(1-34)NH2] | -9.3 Log M | 226 |
| AVSEIQLMHNLGKH-NH2 [native rPTH(1-14)] | -3.8 Log M and 152 µM | 221 |
| AVAEIQLMHAR-NH2 [[A3, A10, R11]rPTH(1-11)] | -4.6 Log M and 29.1 µM | 238 |
| AVSEIQL[Nle]HNLGKHLASVER[Nle]QWLRKKLQDVHNY-NH2 [[Nle^8,21,Tyr^34]-rPTH(1-34)NH2] | -9.2 Log M and 0.0007 µM | 226 |
| AVAEIQLMHARAKHLNSMERVEWLRKKLQDVHNY-NH2 (also called peptide #7; #7) [[A1, A3, A10, R11, A12, Y34]hPTH(1-34)] | -3.5 Log M and 313 µM | 222 |
| AVAEIQLMHARAKH-NH2 [[A3, A10, R11, A12]rPTH(1-14)] | -6 Log M and 4.66 µM | 243 |

target: T1, human PTH-1 receptor; experiment: cell-based or functional assay; remark: another data set of the same source

| Binder | cAMP Emax, SAOS-2 cells [picomole/well] | cAMP EC50, SAOS-2 cells |
| --- | --- | --- |
| SVSEIQLMHNLGKHLNSMERVEWLRKKLQDVHNY-NH2 [[Tyr^34]human (h)PTH(1-34)NH2] | 307 |  |
| AVAEIQLMHAR-NH2 [[A3, A10, R11]rPTH(1-11)] | 235 | 94.7 µM and -4.12 Log M |
| AVSEIQL[Nle]HNLGKHLASVER[Nle]QWLRKKLQDVHNY-NH2 [[Nle^8,21,Tyr^34]-rPTH(1-34)NH2] | 272 | -9.75 Log M and 0.00018 µM |
| AVAEIQLMHARAKHLNSMERVEWLRKKLQDVHNY-NH2 (also called peptide #7; #7) [[A1, A3, A10, R11, A12, Y34]hPTH(1-34)] | 272 | 0.00011 µM and -9.95 Log M |
| AVAEIQLMHARAKH-NH2 [[A3, A10, R11, A12]rPTH(1-14)] | 331 | 12.7 µM and -4.9 Log M |

target: T2, rat PTH-1 receptor; experiment: cell-based or functional assay

| Binder | cAMP EC50, ROS 17/2.8 cells | cAMP Emax, ROS 17/2.8 cells [picomole/well] |
| --- | --- | --- |
| SVSEIQLMHNLGKHLNSMERVEWLRKKLQDVHNY-NH2 [[Tyr^34]human (h)PTH(1-34)NH2] | -9.6 Log M and 0.0003 µM | 340 |
| AVSEIQLMHNLGKH-NH2 [native rPTH(1-14)] | -3.4 Log M and 449 µM | 376 |
| AVAEIQLMHAR-NH2 [[A3, A10, R11]rPTH(1-11)] | 133 µM and -3.9 Log M | 377 |
| AVAEIQLMHARAKW-NH2 [[A3, A10, R11, A12, W14]rPTH(1-14)] | 3.4 µM | 382 |
| AVSEIQL[Nle]HNLGKHLASVER[Nle]QWLRKKLQDVHNY-NH2 [[Nle^8,21,Tyr^34]-rPTH(1-34)NH2] | -9.5 Log M and 0.0003 µM | 364 |
| AVAEIQLMHARAKHLNSMERVEWLRKKLQDVHNY-NH2 (also called peptide #7; #7) [[A1, A3, A10, R11, A12, Y34]hPTH(1-34)] | -9.6 Log M and 0.0002 µM | 395 |
| AVAEIQLMHARAKH-NH2 [[A3, A10, R11, A12]rPTH(1-14)] | -5.2 Log M and 7.3 µM | 395 |

target: truncated human PTH-1 receptor hDelNt (human), Q03431; experiment: cell-based or functional assay

| Binder | cAMP Emax, COS-7 cells with hDeINt (picomole/well) | cAMP potency against native PTH(1-14) [fold] |
| --- | --- | --- |
| SVSEIQLMHNLGKHLNSMERVEWLRKKLQDVHNY-NH2 [[Tyr^34]human (h)PTH(1-34)NH2] | 238 |  |
| AVSEIQLMHNLGKH-NH2 [native rPTH(1-14)] | 222 |  |
| AVAEIQLMHAR-NH2 [[A3, A10, R11]rPTH(1-11)] | 243 |  |
| AVSEIQL[Nle]HNLGKHLASVER[Nle]QWLRKKLQDVHNY-NH2 [[Nle^8,21,Tyr^34]-rPTH(1-34)NH2] | 243 |  |
| AVAEIQLMHARAKHLNSMERVEWLRKKLQDVHNY-NH2 (also called peptide #7; #7) [[A1, A3, A10, R11, A12, Y34]hPTH(1-34)] | 251 |  |
| AVAEIQLMHARAKH-NH2 [[A3, A10, R11, A12]rPTH(1-14)] | 250 | 100 |

target: T1, human PTH-1 receptor; experiment: competition binding on HKRK-B7 cells, 125I-rPTH(1-34) tracer displaced by varying doses of unlabeled peptide
Protocol: Binding reactions were performed with stably transfected HKRK-B7 cells in 24-well plates. […] Incubations (final volume=300 µL) were at 15° C. for 4 h. Cells were then placed on ice, the binding medium was removed, and the monolayer was rinsed three times with 0.5 mL of cold binding buffer. The cells were subsequently lysed with 0.5 mL 5N NaOH and counted for radioactivity. The non-specific binding for each experiment was determined by competition with a 1 µM dose of unlabeled rPTH(1–34). The maximum specific binding (B_0) was the total radioactivity bound in the absence of unlabeled PTH ligand, corrected for nonspecific binding. Binding $IC50$ values were determined using nonlinear regression (see below).
To determine if these substitutions could enhance the activity of PTH(1–34), the substitutions of Ser3→Ala, Asn10→Ala, Leu11→Arg and Gly12→Ala were introduced into the analog [Ala1,Tyr34]hPTH(1–34) to yield peptide #7.

| Binder | fold improvement in binding affinity, as compared to rPTH(1-34) [fold] |
| --- | --- |
| AVAEIQLMHARAKHLNSMERVEWLRKKLQDVHNY-NH2 (also called peptide #7; #7) [[A1, A3, A10, R11, A12, Y34]hPTH(1-34)] | ~2 |
